In this experiment the test system is PBMCs from LTBI donors (IFN-γ production). Type of experiment: cell-based, human. To be noted: ex vivo IFN-γ ELISPOT; for Resp. freq.: fraction of 28 LTBI donors responding to epitopes of the antigen; for Total SFC: total spot-forming cells, LTBI donors.

The values that follow come from patent US10703784B2, “Antigens and epitopes derived from Mycobacterium tuberculosis” (priority 2011, dated 2020).

B1: Rv0292: MTB protein, novel CD4 T cell antigen; Cell wall and cell processes, Island 1, Esx-3 (protein, listed as Mycobacterium tuberculosis)
chain: MNPIPSWPGRGRVTLVLLAVVPVALAYPWQSTRDYVLLGVAAAVVIGLFGFWRGLYFTTIARRGLAILRRRRRIAEPATCTRTTVLVWVGPPASDTNVLPLTLIARYLDRYGIRADTIRITSRVTASGDCRTWVGLTVVADDNLAALQARSARIPLQETAQVAARRLADHLREIGWEAGTAAPDEIPALVAADSRETWRGMRHTDSDYVAAYRVSANAELPDTLPAIRSRPAQETWIALEIAYAAGSSTRYTVAAACALRTDWRPGGTAPVAGLLPQHGNHVPALTALDPRSTRRLDGHTDAPADLLTRLHWPTPTAGAHRAPLTNAVSRT
For the molecule B1, the Resp. freq. turned out to be 14% and the “Total SFC” value amounted to 708 SFC.

B2: Rv3876: MTB protein, novel CD4 T cell antigen; Cell wall and cell processes, Island 3, Esx-1 (protein, listed as Mycobacterium tuberculosis)
chain: MAADYDKLFRPHEGMEAPDDMAAQPFFDPSASFPPAPASANLPKPNGQTPPPTSDDLSERFVSAPPPPPPPPPPPPPTPMPIAAGEPPSPEPAASKPPTPPMPIAGPEPAPPKPPTPPMPIAGPEPAPPKPPTPPMPIAGPAPTPTESQLAPPRPPTPQTPTGAPQQPESPAPHVPSHGPHQPRRTAPAPPWAKMPIGEPPPAPSRPSASPAEPPTRPAPQHSRRARRGHRYRTDTERNVGKVATGPSIQARLRAEEASGAQLAPGTEPSPAPLGQPRSYLAPPTRPAPTEPPPSPSPQRNSGRRAERRVHPDLAAQHAAAQPDSITAATTGGRRRKRAAPDLDATQKSLRPAAKGPKVKKVKPQKPKATKPPKVVSQRGWRHWVHALTRINLGLSPDEKYELDLHARVRRNPRGSYQIAVVGLKGGAGKTTLTAALGSTLAQVRADRILALDADPGAGNLADRVGRQSGATIADVLAEKELSHYNDIRAHTSVNAVNLEVLPAPEYSSAQRALSDADWHFIADPASRFYNLVLADCGAGFFDPLTRGVLSTVSGVVVVASVSIDGAQQASVALDWLRNNGYQDLASRACVVINHIMPGEPNVAVKDLVRHFEQQVQPGRVVVMPWDRHIAAGTEISLDLLDPIYKRKVLELAAALSDDFERAGRR
For the molecule B2, the Resp. freq. was found to be 18% and the “Total SFC” value was 1323 SFC.

B3: Rv3125c: MTB protein, novel CD4 T cell antigen; PE/PPE (protein, listed as Mycobacterium tuberculosis)
chain: MVLGFSWLPPEINSARMFAGAGSGPLFAAASAWEGLAADLWASASSFESVLAALTTGPWTGPASMSMAAAASPYVGWLSTVASQAQLAAIQARAAATAFEAALAATVHPTAVTANRVSLASLIAANVLGQNTPAIAATEFDYLEMWAQDVAAMVGYHAGAKSVAATLAPFSLPPVSLAGLAAQVGTQVAGMATTASAAVTPVVEGAMASVPTVMSGMQSLVSQLPLQHASMLFLPVRILTSPITTLASMARESATRLGPPAGGLAAANTPNPSGAAIPAFKPLGGRELGAGMSAGLGQAQLVGSMSVPPTWQGSIPISMASSAMSGLGVPPNPVALTQAAGAAGGGMPMMLMPMSISGAGAGMPGGLMDRDGAGWHVTQARLTVIPRTGVG
Regarding B3, the Resp. freq. turned out to be 21% and the “Total SFC” value was found to be 125 SFC.

B4: Rv3135: MTB protein, novel CD4 T cell antigen; PE/PPE (protein, listed as Mycobacterium tuberculosis)
chain: MVLGFSWLPPEINSARMFAGAGSGPLFAAASAWEGLAADLWASASSFESVLAALTTGPWTGPASMSMAAAASPYVGWLSTVASQAQLAAIQARAAATAFEAALAATVHPTAVTANRVSLASLIAANVLGQNTPAIAATEFDYLEMWAQDVAAMVGYHAGAKSVAATLAPFSLPPVSLAGLAAQVGTQVAGMATTASAAVTPVVEGAMASVPTVMSGMQSLVSQLPLQHASMLFLPVRILTSPITTLASMARESATRLGPPAGGLAAANTPNPSGAAIPAFKPLGGRELGAGMSAGLGQAQLVGSMSVPPTWQGSIPISMASSAMSGLGVPPNPVALTQAAGAAGGGMPMMLMPMSISGAGAGMPGGLMDRDGAGWHVTQARLTVIPRTGVG
B4: the Resp. freq. is reported as 18% and the “Total SFC” value is recorded as 317 SFC.

B5: Rv0293c: MTB protein, novel CD4 T cell antigen; Conserved hypotheticals, Island 1 (protein, listed as Mycobacterium tuberculosis)
chain: MSGTFTADAIGPPVPIPDVPGADAGAEGLPSRSVLSARQRILVESSAIADVALRTAVASVLSATVTPAVVANALRHVNEGSERSNLNFYAELAAAHDPAKSFPAPTELPKVTSRPASPLTEWVARGTVDNIAFASGFRAINPTMRQRWSALTANNIVHAQHWRHRDGPRPTLCVIHGFMGSSYLLNGLFFSLPWYYRSGYDVLLYTLPFHGQRAEKFSPFSGFGYFTSGLSGFAEAMAQAVYDFRSIVDYLRHIGVDRIALTGISLGGYTSALLASVESRLEAVIPNCPVVMPAKLFDEWFPANKLVKLGLRLTNISRDELIAGLAYHGPLNYRPLLPKDRRMIITGLGDRMAPPEHAVTLWKQWDRCALHWFPGSHLLHVSQLDYLRRMTVFLQGLMFD
With B5, the Resp. freq. came to 14% and the “Total SFC” value was determined as 1073 SFC.

B6: Rv0294: MTB protein, novel CD4 T cell antigen; Intermediary metabolism and respiration, Island 1 (protein, listed as Mycobacterium tuberculosis)
chain: MWDPDVYLAFSGHRNRPFYELVSRVGLERARRVVDLGCGPGHLTRYLARRWPGAVIEALDSSPEMVAAAAERGIDATTGDLRDWKPKPDTDVVVSNAALHWVPEHSDLLVRWVDELAPGSWIAVQIPGNFETPSHAAVRALARREPYAKLMRDIPFRVGAVVQSPAYYAELLMDTGCKVDVWETTYLHQLTGEHPVLDWITGSALVPVRERLSDESWQQFRQELIPLLNDAYPPRADGSTIFPFRRLFMVAEVGGARRSGG
As to B6, the Resp. freq. worked out at 18% and the “Total SFC” value was found to be 1368 SFC.

B7: Rv2874: MTB protein, novel CD4 T cell antigen; Intermediary metabolism and respiration (protein, listed as Mycobacterium tuberculosis)
chain: MVESRRAAAAASAYASRCGIAPATSQRSLATPPTISVPSGEGRCRCHVARGAGRDPRRRLRRRRWCGRCGYHSHLTGGEFDVNRLCQQRSRERSCQLVAVPADPRPKRQRITDVLTLALVGFLGGLITGISPCILPVLPVIFFSGAQSVDAAQVAKPEGAVAVRRKRALSATLRPYRVIGGLVLSFGMVTLLGSALLSVLHLPQDAIRWAALVALVAIGAGLIFPRFEQLLEKPFSRIPQKQIVTRSNGFGLGLALGVLYVPCAGPILAAIVVAGATATIGLGTVVLTATFALGAALPLLFFALAGQRIAERVGAFRRRQREIRIATGSVTILLAVALVFDLPAALQRAIPDYTASLQQQISTGTEIREQLNLGGIVNAQNAQLSNCSDGAAQLESCGTAPDLKGITGWLNTPGNKPIDLKSLRGKVVLIDFWAYSCINCQRAIPHVVGWYQAYKDSGLAVIGVHTPEYAFEKVPGNVAKGAANLGISYPIALDNNYATWTNYRNRYWPAEYLIDATGTVRHIKFGEGDYNVTETLVRQLLNDAKPGVKLPQPSSTTTPDLTPRAALTPETYFGVGKVVNYGGGGAYDEGSAVFDYPPSLAANSFALRGRWALDYQGATSDGNDAAIKLNYHAKDVYIVVGGTGTLTVVRDGKPATLPISGPPTTHQVVAGYRLASETLEVRPSKGLQVFSFTYG
As to B7, the Resp. freq. is 18% and the “Total SFC” value turned out to be 798 SFC.

B8: Rv0297: MTB protein, novel CD4 T cell antigen; PE/PPE (protein, listed as Mycobacterium tuberculosis)
chain: MSFVIAQPEMIAAAAGELASIRSAINAANAAAAAQTTGVMSAAADEVSTAVAALFSSHAQAYQAASAQAAAFHAQVVRTLTVDAGAYASAEAANAGPNMLAAVNAPAQALLGRPLIGNGANGAPGTGQAGGDGGLLFGNGGNGGSGAPGQAGGAGGAAGFFGNGGNGGDGGAGANGGAGGTAGWFFGFGGNGGAGGIGVAGINGGLGGAGGDGGNAGFFGNGGNGGMGGAGAAGVNAVNPGLATPVTPAANGGNGLNLVGVPGTAGGGADGANGSAIGQAGGAGGDGGNASTSGGIGIAQTGGAGGAGGAGGDGAPGGNGGNGGSVEHTGATGSSASGGNGATGGNGGVGAPGGAGGNGGHVSGGSVNTAGAGGKGGNGGTGGAGGPGGHGGSVLSGPVGDSGNGGAGGDGGAGVSATDIAGTGGRGGNGGHGGLWIGNGGDGGAGGVGGVGGAGAAGAIGGHGGDGGSVNTPIGGSEAGDGGKGGLGGDGGGRGIFGQFGAGGAGGAGGVGGAGGAGGTGGGGGNGGAIFNAGTPGAAGTGGDGGVGGTGAAGGKGGAGGSGGVNGATGADGAKGLDGATGGKGNNGNPG
In the case of B8, the Resp. freq. worked out at 14% and the “Total SFC” value turned out to be 154 SFC.

B9: Rv0124: MTB protein, novel CD4 T cell antigen; PE/PPE (protein, listed as Mycobacterium tuberculosis)
chain: MSFVSVAPEIVVAAATDLAGIGSAISAANAAAAAPTTAVLAAGADEVSAAIAALSGHAQAYQALSAQAAAFHQQFVQTLAGGAGAYAAAEAQVEQQLLAAINAPTQALLGRPLIGNGADGAPGTGQAGGAGGILYGNGGNGGSGAAGQAGGAGGPAGLIGHGGSGGAGGSGAAGGAGGHGGWLWGNGGVGGSGGAGVGAGVAGGHGGAGGAAGLWGAGGGGGNGGNGADANIVSGGDGGLGGAGGGGGWLYGDGGAGGHGGQGAIGLGGGAGGDGGQGGAGRGLWGTGGAGGHGGQGGGTGGPPLPGQAGMGAAGGAGGLIGNGGAGGDGGVGASGGVAGVGGAGGNAMLIGHGGAGGAGGDSSFANGAAGGAGGAGGHLFGNGGSGGHGGAVTAGNTGIGGAGGVGGDARLIGHGGAGGAGGDRAGALVGRDGGPGGNGGAGGQLYGNGGDGAPGTGGTLQAAVSGLVTALFGAPGQPGDTGQPG
For B9, the Resp. freq. is 14% and the “Total SFC” value was 177 SFC.

B10: Rv0291: MTB protein, novel CD4 T cell antigen; Intermediary metabolism and respiration, Island 1 (protein, listed as Mycobacterium tuberculosis)
chain: MIRAAFACLAATVVVAGWWTPPAWAIGPPVVDAAAQPPSGDPGPVAPMEQRGACSVSGVIPGTDAGVPTPSQTMLNLPAAWQFSRGEGQLVAIIDTGVQPGPRLPNVDAGGDFVESTDGLTDCDGHGTLVAGIVAGQPGNDGFSGVAPAARLLSIRAMSTKFSPRTSGGDPQLAQATLDVAVLAGAIVHAADLGAKVINVSTITCLPADRMVDQAALGAAIRYAAVDKDAVIVAAAGNTGASGSVSASCDSNPLTDLSRPDDPRNWAGVTSVSIPSWWQPYVLSVASLTSAGQPSKFSMPGPWVGIAAPGENIASVSNSGDGALANGLPDAHQKLVALSGTSYAAGYVSGVAALVRSRYPGLNATEVVRRLTATAHRGARESSNIVGAGNLDAVAALTWQLPAEPGGGAAPAKPVADPPVPAPKDTTPRNVAFAGAAALSVLVGLTAATVAIARRRREPTE
For B10, the Resp. freq. came to 14% and the “Total SFC” value came out at 1153 SFC.
